Target: CD44 (isoform 4), Fc-fused (human)
Experiment: SPR; apparent KD, dimeric Fc-fused target

Chain of CD44 (isoform 4), Fc-fused (human) (chain, as listed by the source): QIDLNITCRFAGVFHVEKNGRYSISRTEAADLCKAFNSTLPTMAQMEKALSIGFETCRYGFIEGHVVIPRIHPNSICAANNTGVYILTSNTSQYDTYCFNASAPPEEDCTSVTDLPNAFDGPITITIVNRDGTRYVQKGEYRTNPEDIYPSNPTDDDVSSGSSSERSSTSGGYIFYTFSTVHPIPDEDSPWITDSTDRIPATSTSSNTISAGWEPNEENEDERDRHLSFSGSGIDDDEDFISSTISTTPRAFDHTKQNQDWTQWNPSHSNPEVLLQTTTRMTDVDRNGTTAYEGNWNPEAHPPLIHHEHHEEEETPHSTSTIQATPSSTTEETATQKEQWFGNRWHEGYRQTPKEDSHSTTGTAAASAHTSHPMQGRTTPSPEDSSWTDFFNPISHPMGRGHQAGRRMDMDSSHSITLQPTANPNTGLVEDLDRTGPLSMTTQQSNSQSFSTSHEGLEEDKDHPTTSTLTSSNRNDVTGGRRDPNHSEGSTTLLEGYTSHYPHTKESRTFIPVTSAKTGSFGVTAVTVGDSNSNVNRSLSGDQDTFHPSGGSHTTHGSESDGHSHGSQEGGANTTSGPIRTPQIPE

B1: BIWA4 (bivatuzumab), as human IgG4 (antibody, V domains shown)
VH: EVQLVESGGGLVKPGGSLRLSCAASGFTFSSYDMSWVRQAPGKGLEWVSTISSGGSYTYYLDSIKGRFTISRDNAKNSLYLQMNSLRAEDTAVYYCARQGLDYWGRGTLVTVSS
VL: EIVLTQSPATLSLSPGERATLSCSASSSINYIYWYQQKPGQAPRLLIYLTSNLASGVPARFSGSGSGTDFTLTISSLEPEDFAVYYCLQWSSNPLTFGGGTKVEIK
- Kd: 48 nM
